Assay results taken from IntAct's records for PubMed 17158164.

B1: TATA-box-binding protein (Homo sapiens), P20226 (parent)
chain: MDQNNSLPPYAQGLASPQGAMTPGIPIFSPMMPYGTGLTPQPIQNTNSLSILEEQQRQQQQQQQQQQQQQQQQQQQQQQQQQQQQQQQQQQQQQQAVAAAAVQQSTSQQATQGTSGQAPQLFHSQTLTTAPLPGTTPLYPSPMTPMTPITPATPASESSGIVPQLQNIVSTVNLGCKLDLKTIALRARNAEYNPKRFAAVIMRIREPRTTALIFSSGKMVCTGAKSEEQSRLAARKYARVVQKLGFPAKFLDFKIQNMVGSCDVKFPIRLEGLVLTHQQFSSYEPELFPGLIYRMIKPRIVLLIFVSGKVVLTGAKVRAEIYEAFENIYPILKGFRKTT
partner: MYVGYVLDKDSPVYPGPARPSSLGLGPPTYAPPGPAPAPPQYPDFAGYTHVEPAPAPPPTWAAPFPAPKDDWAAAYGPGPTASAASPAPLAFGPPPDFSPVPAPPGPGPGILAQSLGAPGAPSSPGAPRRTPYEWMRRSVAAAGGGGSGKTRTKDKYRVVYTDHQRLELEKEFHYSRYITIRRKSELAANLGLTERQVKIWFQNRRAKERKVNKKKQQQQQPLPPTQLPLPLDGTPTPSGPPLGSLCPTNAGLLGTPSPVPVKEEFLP

Variants of: B1
Settings: with cdx1_mouse Cdx1, P18111
In the case of I292F;V301T;L303V, the “effect of a mutation on the interaction” value is reported as “with no effect”.
